Patent US20160114000A1 (Merck Sharp & Dohme, published 2016)
*1 amine or outer side, *2 acyl side, *3 side chain or, on linkers, in order; H or OH if unused. Where no end group is shown, it is not given here. Side-chain parts run from the residue outwards. [ ]: non-standard residue; d: D form. The star is where a group is joined. γGlu = O=C(O)[C@H](CCC(=O)[*:2])N[*:1]; Palmitoyl = CCCCCCCCCCCCCCCC(=O)*; Ac4c = NC1(C(=O)O)CCC1

What was measured:
human GCGR = target: T1, human GCGR (Homo sapiens, UniProt P47871); assay: cAMP protocol, cells expressing human GCGR; type: cell-based; details: ratio of EC50 at human GCGR to EC50 at human GLP1R
T1 construct: expressed in transfected cells; grown under Geneticin and Hygromycin selection
Method: The cAMP protocol was as follows.
Peptides were dissolved in 100% DMSO and serially diluted to generate 11 point titrations. The peptide solutions were then transferred into 384-well assay plates (150 nL/well). Assay ready frozen cells expressing human GLP-1R or human GCGR were suspended in growth media consisting of DMEM/F12 medium (GIBCO), 10% FBS (GIBCO), lx P/S (GIBCO), 800 μg/mL Geneticin (GIBCO), and 300 μg/mL Hygromycin (Invitrogen). Cells were then diluted in assay buffer consisting of PBS (GIBCO), 7.5% BSA (Perkin Elmer), 100 μM RO 20-1724 (Sigma), and 20% human serum (MP Biomedical). The cell suspensions (15 μL) were then added to the assay plates containing the peptide solutions (30,000 cells/well for human GCGR; 20,000 cells/well for GLP1R). The cells were incubated for 1 hour at room temperature in the dark. Production of cAMP was determined using HitHunter™ cAMPXS kits (DiscoverX). ED buffer (20 μL) was then added to each well and the plates were incubated for 1 hour at room temperature in the dark. Subsequently, EA buffer (20 μL) was added to each well, and the plates were incubated for 1-18 hours at room temperature in the dark. Luminescence was measured using an EnVision Multilabel plate reader (Perkin Elmer). EC50 values were calculated using ADA data analyzer software.

[1] = test system: diet-induced obese (DIO) mice (strain C57Bl6/NTac); assay: Cumulative body weight change (grams) in DIO mice, Example 18; type: in vivo; details: 9 nmol/kg daily, day 9
Method: Mice were administered a vehicle control or a dose of a peptide daily for nine days. […] The peptide of SEQ ID NO: 9 was administered at doses of 9 and 25 nmol/kg. Cumulative body weight change (grams) was measured each day of the study except on day 3. Results are shown in FIG. 1 and are expressed as mean±SEM.

[2] = test system: DIO mice (strain C57Bl6/NTac); assay: Body weight change (%) relative to vehicle in DIO mice, second study, Example 19; type: in vivo; details: eight days
Method: In addition, the peptide of SEQ ID NO: 8 was administered at 15 nmol/kg, while the peptide of SEQ ID NOs: 10 and 11 were administered at 3 nmol/kg. Body weight was measured daily for eight days and body weight change is expressed as percent relative to vehicle (FIG. 2).

[3] = test system: DIO mice (strain C57Bl6/NTac); assay: Ambient glucose levels in DIO mice, Example 21; type: in vivo; details: 9 nmol/kg
Method: In addition to cumulative body weight change, ambient glucose levels of the DIO mice (strain C57Bl6/NTac) were measured periodically throughout the study.

human glucagon receptor = human glucagon receptor (human, UniProt P47871 26-477); assay: cell-based or functional assay
human GLP-1 receptor = human GLP-1 receptor (human, UniProt P43220 24-463); assay: cell-based or functional assay

human glucagon receptor, sequence (P47871 26-477): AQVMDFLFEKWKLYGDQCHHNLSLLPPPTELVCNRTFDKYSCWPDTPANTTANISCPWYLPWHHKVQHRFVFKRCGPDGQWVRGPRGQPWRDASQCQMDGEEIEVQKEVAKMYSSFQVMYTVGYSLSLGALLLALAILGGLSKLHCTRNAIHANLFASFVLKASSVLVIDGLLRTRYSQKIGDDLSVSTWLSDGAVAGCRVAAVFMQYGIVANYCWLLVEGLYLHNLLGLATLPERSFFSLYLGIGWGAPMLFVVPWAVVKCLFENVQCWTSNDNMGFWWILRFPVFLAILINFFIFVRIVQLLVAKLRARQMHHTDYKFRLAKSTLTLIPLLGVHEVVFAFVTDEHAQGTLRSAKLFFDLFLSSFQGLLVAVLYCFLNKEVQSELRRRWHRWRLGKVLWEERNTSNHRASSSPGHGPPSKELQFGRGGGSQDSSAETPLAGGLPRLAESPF
T1 sequence (P47871 26-477): as above

| Molecule | hGCGR/hGLP1R (hTone) (human GCGR) | weight loss [1] | weight loss, percent relative to vehicle ([2]; 9 nmol/kg daily) | decrease in ambient glucose compared to vehicle ([3]; day 7 of dosing) | weight loss, percent relative to vehicle ([2]; 15 nmol/kg daily) | decrease in ambient glucose compared to vehicle ([3]; day 9) | GCGR EC50 (nM) human; cAMP production (HitHunter cAMPXS), 20% human serum (human glucagon receptor) | hGCGR/hGLP1R (hTone): ratio of cAMP EC50 at human GCGR to cAMP EC50 at human GLP1R (human glucagon receptor) | GLPR1 EC50 (nM) human; cAMP production (HitHunter cAMPXS), 20% human serum (human GLP-1 receptor) |
| --- | --- | --- | --- | --- | --- | --- | --- | --- | --- |
| CCCCCCCCCCCCCCCC(=O)N[C@@H](CCC(=O)NCCCC[C@H](NC(=O)[C@H](CC(=O)O)NC(=O)[C@H](CO)NC(=O)[C@@H](NC(=O)[C@H](Cc1ccccc1)NC(=O)[C@@H](NC(=O)CNC(=O)[C@H](CCC(N)=O)NC(=O)[C@@H](CO)NC(=O)[C@@H](N)Cc1c[nH]cn1)[C@@H](C)O)[C@@H](C)O)C(=O)N[C@@H](CO)C(=O)N[C@@H](CCCCN)C(=O)N[C@@H](Cc1ccc(O)cc1)C(=O)N[C@@H](CC(C)C)C(=O)N[C@@H](CC(=O)O)C(=O)N[C@@H](C)C(=O)N[C@@H](CCCNC(=N)N)C(=O)N[C@@H](C)C(=O)N[C@@H](C)C(=O)N[C@@H](CCC(N)=O)C(=O)N[C@@H](CC(=O)O)C(=O)N[C@@H](Cc1ccccc1)C(=O)N[C@H](C(=O)N[C@@H](CCC(N)=O)C(=O)N[C@@H](Cc1c[nH]c2ccccc12)C(=O)N[C@@H](CC(C)C)C(=O)N[C@@H](CC(C)C)C(=O)N[C@@H](CC(=O)O)C(=O)N[C@H](C(N)=O)[C@@H](C)O)C(C)C)C(=O)O [SEQ ID NO: 6] | 0.88 | 10.5 grams | approximately 20% | -60 mg/dL |  |  |  |  |  |
| CCCCCCCCCCCCCCCC(=O)N[C@@H](CCC(=O)N[C@@H](CCC(=O)NCCCC[C@H](NC(=O)[C@H](CC(=O)O)NC(=O)[C@H](CO)NC(=O)[C@@H](NC(=O)[C@H](Cc1ccccc1)NC(=O)[C@@H](NC(=O)CNC(=O)[C@H](CCC(N)=O)NC(=O)[C@@H](CO)NC(=O)[C@@H](N)Cc1c[nH]cn1)[C@@H](C)O)[C@@H](C)O)C(=O)N[C@@H](CO)C(=O)N[C@@H](CCCCN)C(=O)N[C@@H](Cc1ccc(O)cc1)C(=O)N[C@@H](CC(C)C)C(=O)N[C@@H](CC(=O)O)C(=O)N[C@H](C(=O)N[C@@H](CCCNC(=N)N)C(=O)N[C@@H](C)C(=O)N[C@@H](C)C(=O)N[C@@H](CCC(N)=O)C(=O)N[C@@H](CC(=O)O)C(=O)N[C@@H](Cc1ccccc1)C(=O)N[C@H](C(=O)N[C@@H](CCC(N)=O)C(=O)N[C@@H](Cc1c[nH]c2ccccc12)C(=O)N[C@@H](CC(C)C)C(=O)N[C@@H](CC(C)C)C(=O)N[C@@H](CC(=O)O)C(=O)N[C@H](C(N)=O)[C@@H](C)O)C(C)C)C(C)C)C(=O)O)C(=O)O [SEQ ID NO: 8] | 0.60 | 8 grams | approximately 17% |  | approximately 25% | -72 mg/dL |  |  |  |
| H[dS]QGTFTSDK([γGlu-γGlu-Palmitoyl])SKYLDVRAAQDFVQWLLDT-NH2 (N-terminus assumed; SMILES CCCCCCCCCCCCCCCC(=O)N[C@@H](CCC(=O)N[C@@H](CCC(=O)NCCCC[C@H](NC(=O)[C@H](CC(=O)O)NC(=O)[C@H](CO)NC(=O)[C@@H](NC(=O)[C@H](Cc1ccccc1)NC(=O)[C@@H](NC(=O)CNC(=O)[C@H](CCC(N)=O)NC(=O)[C@@H](CO)NC(=O)[C@@H](N)Cc1c[nH]cn1)[C@@H](C)O)[C@@H](C)O)C(=O)N[C@@H](CO)C(=O)N[C@@H](CCCCN)C(=O)N[C@@H](Cc1ccc(O)cc1)C(=O)N[C@@H](CC(C)C)C(=O)N[C@@H](CC(=O)O)C(=O)N[C@H](C(=O)N[C@@H](CCCNC(=N)N)C(=O)N[C@@H](C)C(=O)N[C@@H](C)C(=O)N[C@@H](CCC(N)=O)C(=O)N[C@@H](CC(=O)O)C(=O)N[C@@H](Cc1ccccc1)C(=O)N[C@H](C(=O)N[C@@H](CCC(N)=O)C(=O)N[C@@H](Cc1c[nH]c2ccccc12)C(=O)N[C@@H](CC(C)C)C(=O)N[C@@H](CC(C)C)C(=O)N[C@@H](CC(=O)O)C(=O)N[C@H](C(N)=O)[C@@H](C)O)C(C)C)C(C)C)C(=O)O)C(=O)O) [Co-agonist Peptide 3] |  |  |  |  |  |  | 0.08 nM | 0.6 ratio | 0.13 nM |
| H[dS]QGTFTSDK([γGlu-γGlu-Palmitoyl])SLYLDERAAQDFVQWLLDT-NH2 (N-terminus assumed; SMILES CCCCCCCCCCCCCCCC(=O)N[C@@H](CCC(=O)N[C@@H](CCC(=O)NCCCC[C@H](NC(=O)[C@H](CC(=O)O)NC(=O)[C@H](CO)NC(=O)[C@@H](NC(=O)[C@H](Cc1ccccc1)NC(=O)[C@@H](NC(=O)CNC(=O)[C@H](CCC(N)=O)NC(=O)[C@@H](CO)NC(=O)[C@@H](N)Cc1c[nH]cn1)[C@@H](C)O)[C@@H](C)O)C(=O)N[C@@H](CO)C(=O)N[C@@H](CC(C)C)C(=O)N[C@@H](Cc1ccc(O)cc1)C(=O)N[C@@H](CC(C)C)C(=O)N[C@@H](CC(=O)O)C(=O)N[C@@H](CCC(=O)O)C(=O)N[C@@H](CCCNC(=N)N)C(=O)N[C@@H](C)C(=O)N[C@@H](C)C(=O)N[C@@H](CCC(N)=O)C(=O)N[C@@H](CC(=O)O)C(=O)N[C@@H](Cc1ccccc1)C(=O)N[C@H](C(=O)N[C@@H](CCC(N)=O)C(=O)N[C@@H](Cc1c[nH]c2ccccc12)C(=O)N[C@@H](CC(C)C)C(=O)N[C@@H](CC(C)C)C(=O)N[C@@H](CC(=O)O)C(=O)N[C@H](C(N)=O)[C@@H](C)O)C(C)C)C(=O)O)C(=O)O) [Co-agonist Peptide 11] |  |  |  |  |  |  | 0.06 nM | 0.91 ratio | 0.06 nM |
| HXQGTFTSDXSKYLDARAAQDFVQWLLDT (D-Ser at 2; para-aminomethyl phenylalanine (pAF) at 10 conjugated to γEγE-C16 (palmitoyl); C-terminal amide) [Co-agonist Peptide 12] |  |  |  |  |  |  | 0.05 nM | 0.98 ratio | 0.05 nM |
| H[Ac4c]QGTFTSDK([γGlu-γGlu-Palmitoyl])SKYLDERAAQDFVQWLLDT-NH2 (N-terminus assumed; SMILES CCCCCCCCCCCCCCCC(=O)N[C@@H](CCC(=O)N[C@@H](CCC(=O)NCCCC[C@H](NC(=O)[C@H](CC(=O)O)NC(=O)[C@H](CO)NC(=O)[C@@H](NC(=O)[C@H](Cc1ccccc1)NC(=O)[C@@H](NC(=O)CNC(=O)[C@H](CCC(N)=O)NC(=O)C1(NC(=O)[C@@H](N)Cc2c[nH]cn2)CCC1)[C@@H](C)O)[C@@H](C)O)C(=O)N[C@@H](CO)C(=O)N[C@@H](CCCCN)C(=O)N[C@@H](Cc1ccc(O)cc1)C(=O)N[C@@H](CC(C)C)C(=O)N[C@@H](CC(=O)O)C(=O)N[C@@H](CCC(=O)O)C(=O)N[C@@H](CCCNC(=N)N)C(=O)N[C@@H](C)C(=O)N[C@@H](C)C(=O)N[C@@H](CCC(N)=O)C(=O)N[C@@H](CC(=O)O)C(=O)N[C@@H](Cc1ccccc1)C(=O)N[C@H](C(=O)N[C@@H](CCC(N)=O)C(=O)N[C@@H](Cc1c[nH]c2ccccc12)C(=O)N[C@@H](CC(C)C)C(=O)N[C@@H](CC(C)C)C(=O)N[C@@H](CC(=O)O)C(=O)N[C@H](C(N)=O)[C@@H](C)O)C(C)C)C(=O)O)C(=O)O) [Co-agonist Peptide 13] |  |  |  |  |  |  | 0.06 nM | 1.25 ratio | 0.05 nM |
| H[dS]QGTFTSDK([γGlu-γGlu-Palmitoyl])SKYLEARAAQDFVQWLLDT-NH2 (N-terminus assumed; SMILES CCCCCCCCCCCCCCCC(=O)N[C@@H](CCC(=O)N[C@@H](CCC(=O)NCCCC[C@H](NC(=O)[C@H](CC(=O)O)NC(=O)[C@H](CO)NC(=O)[C@@H](NC(=O)[C@H](Cc1ccccc1)NC(=O)[C@@H](NC(=O)CNC(=O)[C@H](CCC(N)=O)NC(=O)[C@@H](CO)NC(=O)[C@@H](N)Cc1c[nH]cn1)[C@@H](C)O)[C@@H](C)O)C(=O)N[C@@H](CO)C(=O)N[C@@H](CCCCN)C(=O)N[C@@H](Cc1ccc(O)cc1)C(=O)N[C@@H](CC(C)C)C(=O)N[C@@H](CCC(=O)O)C(=O)N[C@@H](C)C(=O)N[C@@H](CCCNC(=N)N)C(=O)N[C@@H](C)C(=O)N[C@@H](C)C(=O)N[C@@H](CCC(N)=O)C(=O)N[C@@H](CC(=O)O)C(=O)N[C@@H](Cc1ccccc1)C(=O)N[C@H](C(=O)N[C@@H](CCC(N)=O)C(=O)N[C@@H](Cc1c[nH]c2ccccc12)C(=O)N[C@@H](CC(C)C)C(=O)N[C@@H](CC(C)C)C(=O)N[C@@H](CC(=O)O)C(=O)N[C@H](C(N)=O)[C@@H](C)O)C(C)C)C(=O)O)C(=O)O) [Co-agonist Peptide 8] |  |  |  |  |  |  | 0.02 nM | 0.9 ratio | 0.02 nM |
| HXQGTFTSDKSKYLDERAAQDFVQWLXDT (D-Ser at 2; Lys 10 conjugated to γEγE-C16 (palmitoyl); methionine sulfone at 27; C-terminal amide) [Co-agonist Peptide 10] |  |  |  |  |  |  | 0.02 nM | 1.1 ratio | 0.02 nM |
| HXQGTXTSDKSKYLDERAAQDFVQWLLDT (D-Ser at 2; p-fluorophenylalanine (pFF) at 6; Lys 10 conjugated to γEγE-C16 (palmitoyl); C-terminal amide) [Co-agonist Peptide 9] |  |  |  |  |  |  | 0.05 nM | 0.93 ratio | 0.06 nM |
